In PMC7115751, “Identification and functional characterization of a β-glucosidase from Bacillus tequelensis BD69 expressed in bacterial and yeast heterologous systems” (PeerJ, 2020):

Substrate: O=[N+]([O-])c1ccc(O[C@@H]2O[C@H](CO)[C@@H](O)[C@H](O)[C@H]2O)cc1
Assay: purified protein
Type: biochemical, Bacillus tequilensis
Conditions: pH 5.0 acetate buffer, 50 °C, pNPG 2–20 mM, no metal or NAD cofactor mentioned

| Protein | Km [mM] | kcat/Km [M⁻¹ s⁻¹] |
| --- | --- | --- |
| Bteqβgluc (pPIC-Bteqβgluc) (Bacillus tequilensis) (protein, full-length ORF (1,329 bp; 443 residues) in pPIC9K, secreted from Pichia pastoris GS115, purified by anion exchange; no His tag mentioned) MTKGLKIVTIGGGSSYTPVLVEGFIKRYDELPVRELWLVDIPEGEEKLNIVGTLAKRMVEKAGVPIDIHLTPDRRKALKDADFVTTQFRVGLLQARAKDERIPLKYGVIGQETNGPGGLFKGLRTIPVILEIAKDIEELCPNAWLVNFTNPAGMVTEALLRYSNLKKVVGLCNVPIGIKMGVAKALDVDVDRVEVQFAGLNHMVFGLDVFLDGVSVKEQVIEAMGDPKNAMTMKNTSGAEWEPDFLKALNVIPCGYHRYYFKTKEMLEHELEASQTEGTRAEVVQKVEKELFELYKDPNLAIKPPQLEKRGGAYYSDAACNLISSIYNDKHDIQPVNTINNGAIASIPDDSAVEVNCVMTKTGPKPIAVGDLPVSVRGLVQQIKSFERVAAEAAVTGDYQTALLAMTTNPLVPSDAVAKQILDDMLEAHKAYLPQFFNKIEA | 7.43 | 1020 |
| Bteqβgluc (pET-Bteqβgluc) (Bacillus tequilensis) (protein, full-length ORF (1,329 bp; 443 residues) in pET-30a(+), His-tagged, E. coli BL21(DE3) pLysS) MTKGLKIVTIGGGSSYTPVLVEGFIKRYDELPVRELWLVDIPEGEEKLNIVGTLAKRMVEKAGVPIDIHLTPDRRKALKDADFVTTQFRVGLLQARAKDERIPLKYGVIGQETNGPGGLFKGLRTIPVILEIAKDIEELCPNAWLVNFTNPAGMVTEALLRYSNLKKVVGLCNVPIGIKMGVAKALDVDVDRVEVQFAGLNHMVFGLDVFLDGVSVKEQVIEAMGDPKNAMTMKNTSGAEWEPDFLKALNVIPCGYHRYYFKTKEMLEHELEASQTEGTRAEVVQKVEKELFELYKDPNLAIKPPQLEKRGGAYYSDAACNLISSIYNDKHDIQPVNTINNGAIASIPDDSAVEVNCVMTKTGPKPIAVGDLPVSVRGLVQQIKSFERVAAEAAVTGDYQTALLAMTTNPLVPSDAVAKQILDDMLEAHKAYLPQFFNKIEA | 8.43 | 887 |
